Key:
[1] = biological target: Grb2 SH2 (UniProt P62993); assay: SH2 binding enrichment of the phosphorylated peptide, bacterial display (enrichment ratio); higher = better substrate or ligand; peptides without Tyr show the background
[2] = biological target: c-Src SH2; assay: as above
[3] = biological target: SHP2-C SH2; assay: as above
[4] = biological target: EPHB2 (UniProt P29323); assay: phosphorylation enrichment, bacterial display (enrichment ratio); higher = better substrate or ligand; peptides without Tyr show the background
Chain of EPHB2 (P29323 whole entry, looked up): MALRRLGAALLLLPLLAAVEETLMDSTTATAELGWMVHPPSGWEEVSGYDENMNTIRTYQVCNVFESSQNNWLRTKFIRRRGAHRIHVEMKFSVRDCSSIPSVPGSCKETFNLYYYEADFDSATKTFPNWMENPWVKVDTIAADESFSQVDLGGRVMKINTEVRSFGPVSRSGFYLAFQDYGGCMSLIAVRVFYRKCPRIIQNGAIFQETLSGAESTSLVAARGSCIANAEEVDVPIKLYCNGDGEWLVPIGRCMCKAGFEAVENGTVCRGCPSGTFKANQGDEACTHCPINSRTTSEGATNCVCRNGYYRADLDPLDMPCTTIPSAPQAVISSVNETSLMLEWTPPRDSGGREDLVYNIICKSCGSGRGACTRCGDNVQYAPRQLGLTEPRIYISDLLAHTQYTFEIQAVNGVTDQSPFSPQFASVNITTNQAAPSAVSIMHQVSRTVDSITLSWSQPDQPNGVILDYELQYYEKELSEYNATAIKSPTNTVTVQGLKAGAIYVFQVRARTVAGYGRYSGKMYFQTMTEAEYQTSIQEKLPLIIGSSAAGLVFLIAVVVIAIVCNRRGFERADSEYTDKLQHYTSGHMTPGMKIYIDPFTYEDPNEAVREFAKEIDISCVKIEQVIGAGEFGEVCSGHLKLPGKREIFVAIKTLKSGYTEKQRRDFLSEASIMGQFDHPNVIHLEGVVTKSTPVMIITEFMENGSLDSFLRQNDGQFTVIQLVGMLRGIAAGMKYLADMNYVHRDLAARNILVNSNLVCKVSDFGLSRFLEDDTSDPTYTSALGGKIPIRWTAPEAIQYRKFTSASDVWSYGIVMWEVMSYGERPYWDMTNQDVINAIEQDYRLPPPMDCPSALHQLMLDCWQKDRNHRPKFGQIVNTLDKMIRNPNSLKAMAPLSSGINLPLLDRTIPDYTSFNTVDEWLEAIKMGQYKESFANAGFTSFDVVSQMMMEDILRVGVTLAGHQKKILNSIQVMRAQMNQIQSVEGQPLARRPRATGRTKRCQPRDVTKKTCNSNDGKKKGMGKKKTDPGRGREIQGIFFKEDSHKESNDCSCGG

[5] = biological target: Fyn (UniProt P06241); assay: as above
Chain of Fyn (P06241 whole entry, looked up): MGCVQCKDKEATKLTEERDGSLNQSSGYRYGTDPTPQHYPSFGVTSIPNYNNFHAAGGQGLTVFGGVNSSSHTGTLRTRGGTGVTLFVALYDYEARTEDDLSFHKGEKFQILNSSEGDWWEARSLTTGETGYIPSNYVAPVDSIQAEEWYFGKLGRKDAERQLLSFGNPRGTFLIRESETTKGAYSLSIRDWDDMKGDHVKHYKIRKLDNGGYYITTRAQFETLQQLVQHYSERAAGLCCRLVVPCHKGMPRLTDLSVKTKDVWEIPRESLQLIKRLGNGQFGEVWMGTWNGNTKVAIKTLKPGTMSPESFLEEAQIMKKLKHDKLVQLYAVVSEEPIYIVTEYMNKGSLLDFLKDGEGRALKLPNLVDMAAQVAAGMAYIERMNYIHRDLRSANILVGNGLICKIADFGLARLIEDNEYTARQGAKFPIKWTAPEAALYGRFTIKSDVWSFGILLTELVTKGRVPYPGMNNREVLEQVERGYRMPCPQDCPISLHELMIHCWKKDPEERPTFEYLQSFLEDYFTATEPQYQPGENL

[6] = biological target: MERTK (UniProt Q12866); assay: as above
[7] = biological target: Jak2 (UniProt O60674); assay: as above
Chain of Jak2 (O60674 whole entry, looked up): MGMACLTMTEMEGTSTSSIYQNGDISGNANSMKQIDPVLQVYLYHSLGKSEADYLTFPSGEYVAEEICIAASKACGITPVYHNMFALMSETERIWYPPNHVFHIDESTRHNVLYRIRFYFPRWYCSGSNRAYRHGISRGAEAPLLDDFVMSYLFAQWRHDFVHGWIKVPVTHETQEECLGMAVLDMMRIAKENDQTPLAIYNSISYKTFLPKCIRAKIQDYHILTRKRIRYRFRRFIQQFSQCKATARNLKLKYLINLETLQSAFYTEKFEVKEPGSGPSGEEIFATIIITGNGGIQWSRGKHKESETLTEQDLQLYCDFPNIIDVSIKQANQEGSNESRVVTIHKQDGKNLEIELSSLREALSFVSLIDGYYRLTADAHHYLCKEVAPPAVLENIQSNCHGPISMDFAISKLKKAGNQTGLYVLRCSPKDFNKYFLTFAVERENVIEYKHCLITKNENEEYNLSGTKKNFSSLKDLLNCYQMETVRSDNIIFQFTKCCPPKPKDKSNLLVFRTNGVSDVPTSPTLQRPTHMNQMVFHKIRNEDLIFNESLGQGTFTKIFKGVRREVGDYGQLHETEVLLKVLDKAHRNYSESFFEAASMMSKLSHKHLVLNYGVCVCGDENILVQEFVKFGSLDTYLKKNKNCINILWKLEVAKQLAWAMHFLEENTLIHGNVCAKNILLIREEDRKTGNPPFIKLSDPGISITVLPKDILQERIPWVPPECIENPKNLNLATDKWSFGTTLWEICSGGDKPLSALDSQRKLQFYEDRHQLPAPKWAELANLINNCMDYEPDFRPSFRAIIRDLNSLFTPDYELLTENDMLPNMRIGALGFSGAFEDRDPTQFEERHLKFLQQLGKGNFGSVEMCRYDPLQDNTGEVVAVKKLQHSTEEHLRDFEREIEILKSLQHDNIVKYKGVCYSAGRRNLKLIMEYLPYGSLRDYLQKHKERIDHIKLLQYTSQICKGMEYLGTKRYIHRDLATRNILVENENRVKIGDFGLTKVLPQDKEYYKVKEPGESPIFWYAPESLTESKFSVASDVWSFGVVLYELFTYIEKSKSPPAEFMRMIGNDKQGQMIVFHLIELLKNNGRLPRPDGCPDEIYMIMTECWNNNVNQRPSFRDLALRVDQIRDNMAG

[8] = system: AncSZ; assay: as above
[9] = biological target: FGFR3 (UniProt P22607); assay: as above
[10] = biological target: EPHB1 (UniProt P54762); assay: as above
Chain of EPHB1 (P54762 whole entry, looked up): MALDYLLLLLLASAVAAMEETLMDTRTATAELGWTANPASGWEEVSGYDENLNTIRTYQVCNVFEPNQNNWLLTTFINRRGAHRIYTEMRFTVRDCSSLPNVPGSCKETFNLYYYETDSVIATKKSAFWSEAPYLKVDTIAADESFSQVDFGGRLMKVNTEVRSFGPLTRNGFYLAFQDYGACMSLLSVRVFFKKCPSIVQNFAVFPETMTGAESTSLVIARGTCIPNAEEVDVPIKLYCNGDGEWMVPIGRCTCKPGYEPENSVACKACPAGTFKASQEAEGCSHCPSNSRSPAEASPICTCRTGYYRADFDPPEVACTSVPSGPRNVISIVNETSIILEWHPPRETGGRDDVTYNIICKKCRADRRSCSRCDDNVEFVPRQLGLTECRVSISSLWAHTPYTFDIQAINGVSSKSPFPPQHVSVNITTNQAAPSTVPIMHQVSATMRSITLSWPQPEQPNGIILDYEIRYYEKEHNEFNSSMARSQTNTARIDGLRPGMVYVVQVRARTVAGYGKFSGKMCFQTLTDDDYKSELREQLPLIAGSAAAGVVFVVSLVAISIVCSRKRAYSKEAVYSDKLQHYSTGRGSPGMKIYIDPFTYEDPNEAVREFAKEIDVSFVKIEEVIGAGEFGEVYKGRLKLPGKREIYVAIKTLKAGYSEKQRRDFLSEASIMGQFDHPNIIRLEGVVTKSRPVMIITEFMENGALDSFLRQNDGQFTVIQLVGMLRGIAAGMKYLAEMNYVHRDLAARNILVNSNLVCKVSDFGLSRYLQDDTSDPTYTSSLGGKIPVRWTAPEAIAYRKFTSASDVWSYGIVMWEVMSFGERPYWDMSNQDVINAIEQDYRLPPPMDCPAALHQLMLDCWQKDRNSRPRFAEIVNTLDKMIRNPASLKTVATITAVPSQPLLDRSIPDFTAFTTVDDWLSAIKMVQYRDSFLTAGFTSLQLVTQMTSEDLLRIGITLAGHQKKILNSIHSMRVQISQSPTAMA

[11] = biological target: FGFR1 (UniProt P11362); assay: as above
[12] = system: c-Src; assay: as above
[13] = system: c-Abl (mouse); assay: as above
[14] = biological target: Fes (UniProt P07332); assay: as above
Chain of Fes (P07332 whole entry, looked up): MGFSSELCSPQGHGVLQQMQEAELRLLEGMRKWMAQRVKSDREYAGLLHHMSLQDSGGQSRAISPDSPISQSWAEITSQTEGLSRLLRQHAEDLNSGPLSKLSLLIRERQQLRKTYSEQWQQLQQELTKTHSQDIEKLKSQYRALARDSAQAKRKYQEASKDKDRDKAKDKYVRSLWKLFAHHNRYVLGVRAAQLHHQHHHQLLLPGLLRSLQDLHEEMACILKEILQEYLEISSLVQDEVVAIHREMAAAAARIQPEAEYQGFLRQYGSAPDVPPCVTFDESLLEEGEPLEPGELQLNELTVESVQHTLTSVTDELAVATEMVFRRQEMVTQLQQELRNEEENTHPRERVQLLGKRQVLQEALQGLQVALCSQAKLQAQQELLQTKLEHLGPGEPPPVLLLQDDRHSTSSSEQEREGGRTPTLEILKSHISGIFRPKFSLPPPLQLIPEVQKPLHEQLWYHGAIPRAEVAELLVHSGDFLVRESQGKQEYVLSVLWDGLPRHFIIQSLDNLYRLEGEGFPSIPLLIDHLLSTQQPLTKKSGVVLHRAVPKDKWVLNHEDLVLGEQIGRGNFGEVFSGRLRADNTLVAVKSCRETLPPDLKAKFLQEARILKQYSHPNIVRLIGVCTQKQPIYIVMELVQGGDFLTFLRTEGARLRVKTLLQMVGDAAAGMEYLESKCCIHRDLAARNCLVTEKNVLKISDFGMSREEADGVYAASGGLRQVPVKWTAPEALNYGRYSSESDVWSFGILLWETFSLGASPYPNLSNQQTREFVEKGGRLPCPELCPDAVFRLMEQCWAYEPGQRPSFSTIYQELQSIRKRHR

[15] = biological target: Hck (UniProt P08631); assay: as above
Chain of Hck (P08631 whole entry, looked up): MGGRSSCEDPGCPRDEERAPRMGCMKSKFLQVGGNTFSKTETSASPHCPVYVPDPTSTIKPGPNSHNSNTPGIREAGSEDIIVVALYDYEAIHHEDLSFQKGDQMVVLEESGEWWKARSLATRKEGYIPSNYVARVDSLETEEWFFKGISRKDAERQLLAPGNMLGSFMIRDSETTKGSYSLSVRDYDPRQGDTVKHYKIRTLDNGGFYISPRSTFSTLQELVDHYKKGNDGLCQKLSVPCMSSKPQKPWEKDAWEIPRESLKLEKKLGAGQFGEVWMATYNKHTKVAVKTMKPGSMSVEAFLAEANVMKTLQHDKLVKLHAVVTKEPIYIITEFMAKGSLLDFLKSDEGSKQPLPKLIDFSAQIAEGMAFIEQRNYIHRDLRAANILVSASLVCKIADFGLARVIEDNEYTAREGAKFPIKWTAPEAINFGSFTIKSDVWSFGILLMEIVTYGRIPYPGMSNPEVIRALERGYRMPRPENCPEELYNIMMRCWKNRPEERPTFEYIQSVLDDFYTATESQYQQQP

[16] = system: Fer (mouse); assay: as above
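For SH2 binding enrichment of the phosphorylated peptide, bacterial display in this document: peptide library displayed on the E. coli surface as eCPX fusions, selected cells deep-sequenced, score is each peptide's frequency after selection divided by its frequency in the input.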
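For phosphorylation enrichment, bacterial display in this document: 11-residue human phosphosite peptides and single-mutation variants displayed on the E. coli surface, counted by deep sequencing, each peptide's frequency after selection divided by its frequency in the unselected input library; frequency after pTyr selection over input frequency; kinase dosed for 20-30% of maximal phosphorylation in three min.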

| SH2 binding enrichment [1] | SH2 binding enrichment [2] | SH2 binding enrichment [3] | Sequence | phosphorylation enrichment [4] | phosphorylation enrichment [5] | phosphorylation enrichment [6] | phosphorylation enrichment [7] | phosphorylation enrichment [8] | phosphorylation enrichment [9] | phosphorylation enrichment [10] | phosphorylation enrichment [11] | phosphorylation enrichment [12] | phosphorylation enrichment [13] | phosphorylation enrichment [14] | phosphorylation enrichment [15] | phosphorylation enrichment [16] |
| --- | --- | --- | --- | --- | --- | --- | --- | --- | --- | --- | --- | --- | --- | --- | --- | --- |
| 0.735 | 0.445 | 0.365 | SHMVDYQPYRK [TEX37_Y25] | 0.402 | 0.59 | 0.575 | 0.719 | 0.759 | 0.505 | 0.609 | 0.47 | 0.673 | 0.91 | 0.83 | 0.701 | 0.575 |
| 1.05 | 0.799 | 0.931 | SHNELYYEEAE [VANGL1_Y344] | 0.733 | 0.544 | 0.58 | 1.37 | 1.5 | 1.15 | 0.736 | 1.05 | 0.578 | 0.896 | 1.27 | 0.626 | 1.03 |
| 0.771 | 0.541 | 0.568 | RPSRWYQFRVA [ANOS1_Y259] | 0.717 | 1.01 | 0.699 | 0.894 | 1.22 | 0.887 | 0.834 | 0.748 | 0.756 | 0.955 | 1.55 | 0.642 | 1.03 |
| 0.703 | 0.477 | 0.947 | KSRQIYDAFIM [GRK3_Y109_R104K_YF] | 6.65 | 13 | 11.7 | 0.799 | 0.764 | 0.6 | 4.7 | 0.576 | 9.72 | 16.5 | 0.941 | 10.4 | 14.4 |
| 0.875 | 0.606 | 0.765 | YPPTHYIRRMP [SLC4A11_Y820_V824M] | 0.412 | 0.397 | 0.447 | 0.4 | 0.717 | 0.493 | 0.455 | 0.451 | 0.381 | 0.484 | 0.597 | 0.339 | 0.59 |
| 0.946 | 0.507 | 0.501 | ETDPRYFDEEF [AKT1_Y437_T435P] | 0.604 | 0.565 | 0.483 | 1.29 | 1.36 | 0.787 | 0.625 | 0.548 | 0.563 | 0.886 | 1.31 | 0.611 | 0.6 |
| 0.823 | 0.538 | 0.433 | TSPKSYPSQKH [CAP2_Y316] | 0.359 | 0.434 | 0.44 | 0.463 | 0.613 | 0.497 | 0.364 | 0.357 | 0.466 | 0.53 | 0.526 | 0.363 | 0.45 |
| 0.824 | 0.623 | 0.791 | NIKKEYAKMVQ [PMS2_Y181] | 0.413 | 0.335 | 0.392 | 0.436 | 0.549 | 0.39 | 0.345 | 0.358 | 0.312 | 0.422 | 0.615 | 0.451 | 0.294 |
| 0.884 | 0.549 | 0.588 | EEGNPYFSSTR [MCCC2_Y520_A524T_YF] | 0.527 | 0.505 | 0.349 | 0.823 | 0.865 | 0.621 | 0.509 | 0.484 | 1.14 | 0.585 | 0.814 | 0.595 | 0.413 |
| 0.7 | 1.34 | 0.664 | DNAYQYMLTDR [MYH7_Y164] | 0.461 | 0.658 | 1.27 | 0.85 | 1.23 | 2.3 | 0.61 | 3.6 | 0.767 | 0.526 | 0.859 | 0.608 | 2.74 |
| 0.83 | 0.501 | 0.817 | WPLKWYAPECI [ZAP70_Y506] | 0.766 | 0.565 | 0.433 | 1.03 | 1.25 | 0.806 | 0.886 | 0.573 | 0.425 | 0.666 | 1.39 | 0.405 | 0.598 |
| 0.588 | 0.249 | 0.835 | PQGVGYPQQQQ [EP300_Y2219_P2221Q] | 0.435 | 0.608 | 0.4 | 0.713 | 0.87 | 0.604 | 0.591 | 0.448 | 0.475 | 0.599 | 0.921 | 0.546 | 0.441 |
| 0.978 | 0.59 | 0.679 | QYNIQYSSSAA [ERBB2IP_Y981] | 0.583 | 0.702 | 0.452 | 0.68 | 0.913 | 0.648 | 0.335 | 0.693 | 0.749 | 0.408 | 0.964 | 0.47 | 0.606 |
| 0.842 | 0.542 | 0.589 | SGGGLYRDMGA [CBX8_Y321] | 0.624 | 0.48 | 0.42 | 0.557 | 0.564 | 0.522 | 0.53 | 0.524 | 0.373 | 0.502 | 0.618 | 0.428 | 0.373 |
| 4.11 | 1.19 | 0.646 | AKQVGYENAGT [PC_Y304] | 0.446 | 0.439 | 0.432 | 0.467 | 0.633 | 0.549 | 0.511 | 0.394 | 0.433 | 0.447 | 0.614 | 0.464 | 0.461 |
| 2.19 | 1.33 | 1.55 | KFVVVYFRETD [IL17RB_Y447_I451T_YF] | 0.597 | 0.463 | 0.417 | 1.11 | 1.36 | 0.734 | 0.637 | 0.512 | 0.377 | 0.734 | 1.23 | 0.57 | 0.484 |
| 1.01 | 0.455 | 0.793 | TVLWQYTGTRP [UGT1A1_Y337_R336Q] | 0.43 | 0.398 | 0.345 | 1.01 | 0.903 | 0.645 | 0.539 | 0.366 | 0.22 | 0.436 | 1.04 | 0.499 | 0.419 |

| SH2 binding enrichment [1] | SH2 binding enrichment [2] | SH2 binding enrichment [3] | Sequence | phosphorylation enrichment [4] | phosphorylation enrichment [5] | phosphorylation enrichment [6] | phosphorylation enrichment [7] | phosphorylation enrichment [8] | phosphorylation enrichment [9] | phosphorylation enrichment [10] | phosphorylation enrichment [11] | phosphorylation enrichment [12] | phosphorylation enrichment [13] | phosphorylation enrichment [14] | phosphorylation enrichment [15] | phosphorylation enrichment [16] |
| --- | --- | --- | --- | --- | --- | --- | --- | --- | --- | --- | --- | --- | --- | --- | --- | --- |
| 0.875 | 0.564 | 0.882 | ALWFIYLHTRS [ENG_Y614_S615L_YF] | 0.583 | 0.433 | 0.422 | 1.13 | 1.2 | 0.778 | 0.585 | 0.409 | 0.411 | 0.979 | 1.37 | 0.428 | 0.485 |
| 0.637 | 0.421 | 0.533 | KIIRRYVSSEG [ANK2_Y3907] | 0.358 | 0.41 | 0.351 | 0.531 | 0.509 | 0.34 | 0.321 | 0.384 | 0.458 | 0.416 | 0.479 | 0.371 | 0.365 |
| 0.815 | 0.464 | 0.616 | APGDAYGDAGY [SYP_Y250] | 0.662 | 0.413 | 0.442 | 0.765 | 0.891 | 0.615 | 0.541 | 0.494 | 0.405 | 0.616 | 0.871 | 0.463 | 0.512 |
| 1.42 | 1.24 | 1.67 | KKLHKYNTQFQ [PIK3R1_Y452_E451K] | 0.46 | 0.355 | 0.487 | 1.55 | 0.577 | 1.13 | 0.511 | 0.496 | 0.416 | 1.06 | 0.909 | 0.425 | 0.503 |
| 1.61 | 1.1 | 1.36 | KRLKDYLMVLQ [USP25_Y425_T427M] | 0.545 | 0.456 | 0.428 | 0.595 | 0.661 | 0.93 | 0.503 | 1.5 | 0.444 | 0.5 | 0.791 | 0.515 | 0.507 |
| 1.02 | 0.509 | 0.784 | FFRDGYMPRQF [GSS_Y270_YF] | 0.4 | 0.393 | 0.493 | 0.592 | 0.634 | 0.55 | 0.415 | 0.597 | 0.345 | 0.482 | 0.82 | 0.455 | 0.407 |
| 0.734 | 0.516 | 0.791 | QPGTDYKIYRY [FN1_Y1970_L1974R] | 0.555 | 0.468 | 0.499 | 0.968 | 1.02 | 0.882 | 0.383 | 0.583 | 0.527 | 0.742 | 0.866 | 0.468 | 0.618 |
| 0.82 | 1.69 | 4.37 | VQNIVYHTASI [CYP39A1_Y102_R103H] | 0.43 | 0.401 | 0.376 | 0.621 | 0.605 | 0.408 | 0.375 | 0.435 | 0.636 | 0.824 | 0.708 | 0.543 | 0.386 |
| 1.01 | 0.908 | 0.748 | CVGGFYGGCNE [CTSC_Y352_Y347C] | 0.625 | 0.678 | 0.585 | 0.636 | 0.81 | 0.653 | 0.548 | 0.439 | 1.88 | 0.471 | 0.854 | 0.838 | 0.566 |
| 0.926 | 1.3 | 0.842 | CTTIHYNYMGN [TP53_Y234_C238G] | 0.62 | 0.402 | 0.633 | 0.865 | 0.915 | 0.653 | 0.85 | 0.532 | 0.425 | 0.657 | 0.987 | 0.462 | 0.763 |
| 0.674 | 0.493 | 0.893 | GLRFGYGVLGG [KRTAP20-2_Y15_YF] | 0.488 | 0.548 | 0.311 | 0.562 | 0.742 | 0.574 | 0.413 | 0.358 | 0.434 | 0.519 | 0.782 | 0.376 | 0.387 |
| 1.1 | 4.11 | 1.07 | GHPYAYDWISI [BEST1_Y227_L224P] | 1.07 | 0.929 | 8.66 | 0.794 | 1.47 | 6.75 | 1.65 | 10.1 | 1.55 | 0.661 | 2.26 | 1.62 | 17.5 |
| 0.935 | 0.672 | 0.77 | DDEESYENVPR [FCRL3_Y722_N721S] | 0.548 | 0.516 | 0.47 | 1.06 | 1.12 | 0.666 | 0.466 | 0.475 | 0.462 | 0.687 | 0.969 | 0.481 | 0.427 |
| 0.621 | 0.436 | 0.451 | RREGVYRNNID [PTEN_Y46_L42R] | 0.517 | 0.664 | 0.752 | 0.778 | 0.55 | 0.516 | 0.324 | 0.392 | 0.8 | 0.783 | 0.925 | 0.461 | 0.469 |
| 1.12 | 0.823 | 0.996 | SCPANYFAFKI [FAM3D_Y65_P60S] | 2.09 | 0.901 | 7.13 | 5.24 | 1.16 | 5.33 | 3.97 | 7.58 | 2.62 | 3.31 | 1.08 | 1.05 | 0.785 |
| 1.11 | 0.491 | 0.718 | TYGVVYRAKDK [CDK11B_Y453] | 0.59 | 11.6 | 1.31 | 0.525 | 0.595 | 0.42 | 0.75 | 0.583 | 8.45 | 0.531 | 1.16 | 9.58 | 0.733 |

Reference: the supplement of paper PMC10065799, “High-throughput profiling of sequence recognition by tyrosine kinases and SH2 domains using bacterial peptide display” (eLife, 2023)
